Consider 116 sequences from the supplement of paper PMC10724198.

± gives the standard deviation of the averaged measurements.
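Also: PSI is a weighted mean of sequencing reads over stability bins, variants kept only with over 10 reads, mCherry proximal and sfGFP distal, peptide attached via GGGS linker.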

For the series, the system named is Saccharomyces cerevisiae. Put plainly: protein stability index of tFT-peptide fusion (C-terminal peptide) (PSI (0-1 scale)); higher = more stable (slower turnover). Conditions: genetic background: wild type; temperature: 30 C. On the procedure:
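Multiplexed protein stability (MPS) profiling in S. cerevisiae. Random 12-aa peptides (tFT-X12 library) are fused to the C-terminus of a sfGFP-mCherry tandem fluorescent timer, after mCherry and a GGGS linker. Cells are FACS-sorted into 8 mCherry/sfGFP bins and deep-sequenced. The protein stability index (PSI) is the read-weighted bin average, scaled from 0 (unstable) to 1 (stable). Only peptides with >10 reads are reported; cells were grown at 30 °C in SC-His with glucose.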
With GGRVPRCRTVLL, the protein stability index came to 0.681 ± 0.033.

In the case of GGSGGGRRGVGR, the protein stability index is 0.656 ± 0.0095.

Regarding GGSGLRCCREMG, the protein stability index came out at 0.681 ± 0.022.

As to GGSLPAHPRNPL, the protein stability index is 0.701 ± 0.027.

As for GGSRGGTFLWGP, the protein stability index turned out to be 0.672 ± 0.036.

GGSTAKGRPMDT: the protein stability index worked out at 0.645 ± 0.0067.

Turning to GGTEGSGWSGGG, the protein stability index was 0.638 ± 0.029.

Take GGTGGRLGVGHV: the protein stability index was 0.704 ± 0.073.

GGTGRGGEMGGR returned a protein stability index of 0.7428 ± 0.0069.

For GGTGRVGEMGGR, the protein stability index was found to be 0.755 ± 0.034.

In the case of GGTWVLGWGLGV, the protein stability index came out at 0.714 ± 0.4.

The sequence GGVCVGSFLFDR displayed a protein stability index of 0.702 ± 0.029.

The sequence GGVEVAQGVVWC came in with a protein stability index of 0.715 ± 0.066.

GGVGGGRAGVWG displayed a protein stability index of 0.681 ± 0.021.

GGVGGPGLDGWK displayed a protein stability index of 0.676 ± 0.059.

GGVLAGEWGAGL had a protein stability index of 0.624 ± 0.051.

In the case of GGVSGQLLRSHG, the protein stability index is 0.682 ± 0.0027.

The sequence GGVSVVTRVAPR displayed a protein stability index of 0.658 ± 0.016.

With GGVVLDEEVGCG, the protein stability index turned out to be 0.614 ± 0.06.

For GGWGCGGWGFVG, the protein stability index turned out to be 0.58568 ± 0.00052.

Turning to GGWGGGGGAWSG, the protein stability index was 0.71 ± 0.041.

With GGWGWRSGTEGE, the protein stability index is 0.665 ± 0.012.

For GGWHVVGGAGVG, the protein stability index was determined as 0.564 ± 0.01.

GGWWGGLGCFMV yielded a protein stability index of 0.699 ± 0.034.

Consider GGYGGGWRGGGR, for which the protein stability index was determined as 0.626 ± 0.077.

Regarding GGYRFCSKYKSE, the protein stability index was 0.673 ± 0.023.

As to GGYYIFGLCDLL, the protein stability index is 0.625 ± 0.075.

GHAYKYVDSFRR displayed a protein stability index of 0.654 ± 0.044.

With GHGGHIVRTSSY, the protein stability index was found to be 0.7 ± 0.023.

GHLGLFEEETGG had a protein stability index of 0.711 ± 0.053.

On to GHRLSMCLGFGK, for which the protein stability index came to 0.63 ± 0.01.

GHVCTRCVWPRV returned a protein stability index of 0.606 ± 0.055.

GIDARGLYGGAL came in with a protein stability index of 0.66 ± 0.032.

In the case of GIGCMVYKGGFQ, the protein stability index was determined as 0.6977 ± 0.0011.

On to GIGYVTPLSRVL, for which the protein stability index stood at 0.72 ± 0.038.

GIKKNQVSIRYI: the protein stability index worked out at 0.606 ± 0.03.

The sequence GIKMTWTNGQHF displayed a protein stability index of 0.6909 ± 0.0054.

Take GILFFLQLCACS: the protein stability index stood at 0.7014 ± 0.0064.

GILNIRKALDGK: the protein stability index was found to be 0.6477 ± 0.0026.

In turn, GIPCRCVCLNQW showed a protein stability index of 0.6961 ± 0.0017.

On to GIPIQKLEYMCK, for which the protein stability index stood at 0.669 ± 0.019.

In turn, GIPPVLFAPPPL gave a protein stability index of 0.696 ± 0.022.

Regarding GIQSGGGGGKGG, the protein stability index was found to be 0.668 ± 0.015.

As to GIRGECEFHSCD, the protein stability index worked out at 0.685 ± 0.015.

For the sequence GIRKRIEKKKIK, the protein stability index was 0.7 ± 0.051.

For the sequence GISGGTVSILGV, the protein stability index amounted to 0.704 ± 0.0096.

GKAIKRPIGIRG returned a protein stability index of 0.683 ± 0.019.

Turning to GKALPALPSGLL, the protein stability index is 0.657 ± 0.025.

Sequence GKECLIRKSHDG yielded a protein stability index of 0.674 ± 0.011.

Regarding GKEKGRAEGRDG, the protein stability index is 0.701 ± 0.023.

On to GKILKGAASPSC, for which the protein stability index is 0.72 ± 0.019.

GKITKNKDNIET gave a protein stability index of 0.686 ± 0.021.

GKKGKEKGEEKR: the protein stability index was determined as 0.716 ± 0.028.

GKKKHRSNPRRS registered a protein stability index of 0.725 ± 0.067.

GKKKIDDKGRWI showed a protein stability index of 0.678 ± 0.14.

As for GKNAEENNIVRE, the protein stability index is 0.614 ± 0.083.

Sequence GKNKRKTYGKRE returned a protein stability index of 0.722 ± 0.035.

Turning to GKQKKKHRRNLK, the protein stability index came to 0.743 ± 0.12.

With GKQNQEKNKKTS, the protein stability index was found to be 0.696 ± 0.045.

Sequence GKRGRDYIKVRE registered a protein stability index of 0.6448 ± 0.006.

In turn, GKRTVLFTRCRQ came in with a protein stability index of 0.5888 ± 0.0055.

For GKTRKGKKRKRK, the protein stability index worked out at 0.666 ± 0.14.

As for GKTRLIEDTQTT, the protein stability index stood at 0.67 ± 0.019.

GKVCVLKLSPWI had a protein stability index of 0.814 ± 0.16.

GKVGSLGLVLSP came in with a protein stability index of 0.682 ± 0.096.

As to GLAFVGWGPRFR, the protein stability index came to 0.71 ± 0.028.

Sequence GLAYPAGALSLL yielded a protein stability index of 0.684 ± 0.1.

Turning to GLCGVCVLKFPR, the protein stability index amounted to 0.759 ± 0.15.

Sequence GLCLLSKDGCLV showed a protein stability index of 0.669 ± 0.055.

For the sequence GLCRLLEILKLR, the protein stability index worked out at 0.63 ± 0.054.

Turning to GLCSMRLYKPRI, the protein stability index was 0.634 ± 0.014.

With GLEIGMSQVSMG, the protein stability index came to 0.645 ± 0.036.

With GLEVGVRGVMGC, the protein stability index is 0.688 ± 0.033.

GLGGPLSLVYLF registered a protein stability index of 0.629 ± 0.037.

Turning to GLGLASSGWGRG, the protein stability index amounted to 0.733 ± 0.018.

The sequence GLGLVSWEAGGG had a protein stability index of 0.702 ± 0.017.

In turn, GLGSSVLQVGVR displayed a protein stability index of 0.689 ± 0.056.

GLGVPCDFRVVA: the protein stability index was determined as 0.694 ± 0.013.

The sequence GLGVSLLVGGEA returned a protein stability index of 0.6572 ± 0.0028.

In turn, GLQFDPALPLPP displayed a protein stability index of 0.739 ± 0.022.

GLRAAGCRAVGG had a protein stability index of 0.672 ± 0.025.

Sequence GLRGFCGVIEFF displayed a protein stability index of 0.721 ± 0.14.

GLRGRRRAAGRV had a protein stability index of 0.726 ± 0.06.

As for GLRLLVLPDSWS, the protein stability index was found to be 0.682 ± 0.056.

In turn, GLSSPLPLALPV showed a protein stability index of 0.649 ± 0.023.

With GLSVVFRIPPGS, the protein stability index was determined as 0.735 ± 0.043.

Turning to GLVLVGGGGGAV, the protein stability index was found to be 0.577 ± 0.051.

In the case of GLVWLGFWCYPL, the protein stability index is 0.55646 ± 6.9e-05.

With GLWAEGCGGEVV, the protein stability index stood at 0.653 ± 0.0083.

Take GLWSGWGMVGCV: the protein stability index was 0.737 ± 0.047.

GLYSIAGGSFGE had a protein stability index of 0.721 ± 0.026.

Turning to GLYYRGPSKKER, the protein stability index worked out at 0.73 ± 0.02.

Consider GMFDCIPPGTIP, for which the protein stability index is 0.741 ± 0.094.

Turning to GMGESGAGMVGW, the protein stability index is 0.727 ± 0.013.

On to GMGRGRGNANEG, for which the protein stability index was found to be 0.622 ± 0.045.

For the sequence GMLCRAGPVRNV, the protein stability index came out at 0.732 ± 0.011.

The sequence GMNCDMCRIRTL gave a protein stability index of 0.683 ± 0.0088.

Take GMSFNVPLWGSI: the protein stability index is 0.69 ± 0.086.

GMVEVSTKTKRR returned a protein stability index of 0.719 ± 0.0092.

GMVSPVRIVSRR had a protein stability index of 0.654 ± 0.024.

In the case of GMWFRIGHCRFA, the protein stability index worked out at 0.684 ± 0.058.

The sequence GMWGGLSPFLGQ showed a protein stability index of 0.691 ± 0.015.

Consider GNDRRKNNICEI, for which the protein stability index came to 0.701 ± 0.034.

In turn, GNLPQIIYSKVQ returned a protein stability index of 0.609 ± 0.037.

Sequence GNPRRNLSTSSR came in with a protein stability index of 0.712 ± 0.02.

Sequence GNRNGEFINTQI registered a protein stability index of 0.665 ± 0.027.

Take GNRYLCIEVTWV: the protein stability index was 0.48 ± 0.055.

In turn, GPEYPFRCRRLF showed a protein stability index of 0.665 ± 0.039.

Consider GPFPPCVVPSSS, for which the protein stability index stood at 0.643 ± 0.048.

In turn, GPFWPGRFGFLC registered a protein stability index of 0.616 ± 0.0078.

GPGGPGGGWPLQ had a protein stability index of 0.687 ± 0.024.

GPGSGWWVSCSL returned a protein stability index of 0.751 ± 0.04.

Turning to GPKGLLKATSLS, the protein stability index came to 0.659 ± 0.064.

In turn, GPLVQVTSYSRY showed a protein stability index of 0.691 ± 0.0077.

Take GPNRCPGRPVTP: the protein stability index was determined as 0.703 ± 0.032.

As for GPPFPPLPLPPP, the protein stability index was found to be 0.658 ± 0.079.
